Residue numbers refer to the chain shown, from its start.
B1: ectodomain of RAE-1γ (domain or fragment)
chain: GLDDAHSLRCNLTIKAPTPADPLWYEAKCLVDEILILHLSNINKTMTSGDPGETANATEVGECLTQPVNDLCQKLRDKVSNTKVDTHKTNGYPHLQVTMIYPQSQGQTPSATWEFNISDSYFFTFYTENMSWRSANDESGVIMNKWNDDGDLVQRLKYFIPECRQKIDEFLKQSKEKP
B2: ectodomain of RAE-1γ PLWY-deletion mutant (domain or fragment)
chain: GLDDAHSLRCNLTIKAPTPADEAKCLVDEILILHLSNINKTMTSGDPGETANATEVGECLTQPVNDLCQKLRDKVSNTKVDTHKTNGYPHLQVTMIYPQSQGQTPSATWEFNISDSYFFTFYTENMSWRSANDESGVIMNKWNDDGDLVQRLKYFIPECRQKIDEFLKQSKEKP
B3: ectodomain of RAE-1β PLWY-deletion mutant (domain or fragment)
chain: GLDDAHSLRCNLTIKDPTPADEAKCFVGEILILHLSNINKTMTSGDPGETANATEVKKCLTQPLKNLCQKLRNKVSNTKVDTHKTNGYPHLQVTMIYPQSQGRTPSATWEFNISDSYFFTFYTENMSWRSANDESGVIMNKWKDDGEFVKQLKFLIHECSQKMDEFLKQSKEKP
B4: ectodomain of RAE-1δ (domain or fragment)
chain: B3 chain with D16A, A23V, K57G, K58E, N66D, N73D, R103Q, N125I, E158G
B5: ectodomain of RAE-1β (domain or fragment)
chain: GLDDAHSLRCNLTIKDPTPADPLWYEAKCFVGEILILHLSNINKTMTSGDPGETANATEVKKCLTQPLKNLCQKLRNKVSNTKVDTHKTNGYPHLQVTMIYPQSQGRTPSATWEFNISDSYFFTFYTENMSWRSANDESGVIMNKWKDDGEFVKQLKFLIHECSQKMDEFLKQSKEKP

Experiments:
RAE-1δ (Mus musculus) = RAE-1δ (Mus musculus) (UniProt Q9JI58); settings: cited from earlier work
[1] = target: ectodomain of m152 (mouse cytomegalovirus m152/gp40 immunoevasin) (mouse cytomegalovirus (MCMV)); assay: AUC
[2] = target: ectodomain of m152 (mouse cytomegalovirus m152/gp40 immunoevasin) (mouse cytomegalovirus (MCMV)); assay: AUC; remark: listed apart in the source
[3] = target: ectodomain of m152 (mouse cytomegalovirus m152/gp40 immunoevasin) (mouse cytomegalovirus (MCMV)); assay: ITC

Sequence of UniProt Q9JI58 (Q9JI58 29-225, stated change not applied): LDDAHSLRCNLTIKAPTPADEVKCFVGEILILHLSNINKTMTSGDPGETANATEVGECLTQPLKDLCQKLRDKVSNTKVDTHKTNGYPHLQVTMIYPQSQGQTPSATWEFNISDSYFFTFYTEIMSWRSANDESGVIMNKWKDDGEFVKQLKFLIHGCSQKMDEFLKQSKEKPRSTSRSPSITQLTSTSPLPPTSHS

Molecule | Kd [1] | other results
NKG2D (from UniProt O54709) |  | Kd (RAE-1δ (Mus musculus)): 726 nM
B1 | 1000 nM | 
B2 | 1400 nM | 
B3 | 31000 nM | 
B4 | 34000 nM | 
B5 | 4100 nM | Kd [2]: 1700 nM; koff [1]: > 0.001 s⁻¹; stoichiometry N [1]: 1; Kd [3]: 2100 nM

— PMC2840211
